# According to PMC7953435 (Cell host & microbe, 2021):
# B1: antibody 2–51 Fab (Fab, V domains shown)
# VH: QVQLVQSGAEVKKPGASVKVSCKVSGYTLIELSMHWVRQAPGKGLEWMGGFDPEDVETIYAQQFQGRVTMTEDTSTDTAYMELSSLRSEDTAVYYCATGWAYKSTWYFGYWGQGTLVTVSS
# VL: QSALTQPPSASGSPGQSVTISCTGTSSDVGGYNYVSWYQQHPGKAPKLMIYEVSKRPSGVPDRFSGSKSGNTASLTVSGLQAEDEADYYCSSYAGSRMGFGGGTKLTVL
# Molecular target: N-terminal domain of SARS-CoV-2 spike (NTD, residues 1–330) (SARS-CoV-2, UniProt P0DTC2)
# Assay: crystal structure
binder,measurement,value
B1,binding result,binds
